Laboratory results as given in PMC10588329.

Experiments:
CaMKII^L308BzF (human) [1] = target: CaMKII^L308BzF (human) (UniProt Q9UQM7); test: SEC
CaMKII^L308BzF (human) [2] = target: CaMKII^L308BzF (human) (UniProt Q9UQM7); test: mass photometry
CaMKII^L308BzF (human) [3] = target: CaMKII^L308BzF (human) (UniProt Q9UQM7); test: cross-linking
[4] = target: Human wild-type CaMKII α (CaMKII^WT) (human) (UniProt Q9UQM7); test: mass photometry

Sequence of UniProt Q9UQM7 (Q9UQM7 6-478): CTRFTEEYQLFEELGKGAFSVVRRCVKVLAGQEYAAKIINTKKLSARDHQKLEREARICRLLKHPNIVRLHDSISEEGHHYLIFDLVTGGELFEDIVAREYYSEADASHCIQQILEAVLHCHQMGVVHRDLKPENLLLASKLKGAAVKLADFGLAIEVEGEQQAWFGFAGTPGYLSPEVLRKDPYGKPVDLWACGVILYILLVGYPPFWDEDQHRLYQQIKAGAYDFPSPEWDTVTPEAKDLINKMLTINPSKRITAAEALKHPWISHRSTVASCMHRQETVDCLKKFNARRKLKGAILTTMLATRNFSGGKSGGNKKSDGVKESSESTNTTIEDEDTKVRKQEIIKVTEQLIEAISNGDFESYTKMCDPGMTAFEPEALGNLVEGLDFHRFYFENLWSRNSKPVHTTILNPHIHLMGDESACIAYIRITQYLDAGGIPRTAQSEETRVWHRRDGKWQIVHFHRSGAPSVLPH

In the case of “CaMKII^L308BzF (from UniProt Q9UQM7 6-478) (enzyme)”, the stoichiometry N (CaMKII^L308BzF (human) [1]) is reported as 12 subunits and the stoichiometry N (CaMKII^L308BzF (human) [2]) is reported as 12 subunits.
Substance “His-tagged Calmodulin (Calbiochem) (from UniProt P0DP23 1-149) (natural protein)” has a Kd (CaMKII^L308BzF (human) [3]) of 2500 nM and a stoichiometry N (Calmodulin per CaMKII dodecamer) (CaMKII^L308BzF (human) [2]) of 12.
Work on “Human Calmodulin (self-made) (from UniProt P0DP23 1-149) (natural protein)” yielded a stoichiometry N (Calmodulin per CaMKII dodecamer) [4] of 5 and a stoichiometry N (Calmodulin per CaMKII holoenzyme) [4] of 6.
